From patent US20240247043A1 (WUHAN YZY BIOPHARMA, published 2024) come the findings set out here.

As usually defined, the Kd is the free concentration of one partner at which half of the binding sites on the other are occupied at equilibrium, for simple one-to-one binding. Read a low Kd as tighter binding.

Positions count from the first letter of the chain named. Numbers in names are those of the source.

Sequences and labels used below:
B1: human FGL1-His antigen (ACRO, FG1-H52Hy) (ligand, UniProt Q08830 23-312, looked up)
chain: LEDCAQEQMRLRAQVRLLETRVKQQQVKIKQLLQENEVQFLDKGDENTVIDLGSKRQYADCSEIFNDGYKLSGFYKIKPLQSPAEFSVYCDMSDGGGWTVIQRRSDGSENFNRGWKDYENGFGNFVQKHGEYWLGNKNLHFLTTQEDYTLKIDLADFEKNSRYAQYKNFKVGDEKNFYELNIGEYSGTAGDSLAGNFHPEVQWWASHQRMKFSTWDRDHDNYEGNCAEEDQSGWWFNRCHSANLNGVYYSGPYTAKTDNGIVWYTWHGWWYSLKSVVMKIRPNDFIPNVI
notes: Bought His-tagged protein; also called hFGL1; hFGL1 antigen
B2: LAG-3 D1-D2-LZ wild type W1161-LZ (other)
chain 1: LQPGAEVPVVWAQEGAPAQLPCSPTIPLQDLSLLRRAGVTWQHQPDSGPPAAAPGHPLAPGPHPAAPSSWGPRPRRYTVLSVGPGGLRSGRLPLQPRVQLDERGRQRGDFSLWLRPARRADAGEYRAAVHLRDRALSCRLRLRLGQASMTASPPGSLRASDWVILNCSFSRPDRPASVHWFRNRGQGRVPVRESPHHHLAESFLFLPQVSPMDSGPWGCILTYRDGFNVSIMYNLTVLGGGGGSGGGGSEPKSSDKTHTCPPCPRIARLEEKVKTLKAQNSELASTANMLREQVAQLKQKVMNHHHHHH
chain 2: LQPGAEVPVVWAQEGAPAQLPCSPTIPLQDLSLLRRAGVTWQHQPDSGPPAAAPGHPLAPGPHPAAPSSWGPRPRRYTVLSVGPGGLRSGRLPLQPRVQLDERGRQRGDFSLWLRPARRADAGEYRAAVHLRDRALSCRLRLRLGQASMTASPPGSLRASDWVILNCSFSRPDRPASVHWFRNRGQGRVPVRESPHHHLAESFLFLPQVSPMDSGPWGCILTYRDGFNVSIMYNLTVLGGGGGSGGGGSEPKSSDKTHTCPPCPLTDTLQAETDQLEDEKSALQTEIANLLKEKEKLEFILAAHHHHHH
notes: Leucine zipper dimer of D1-D2-Linker2-c-JUN-His and D1-D2-Linker2-c-FOS-His
B3: LAG-3 D1-D2-LZ mutant WS323-LZ (N183A) (other)
chain 1: B2 chain 1 with N183A
chain 2: B2 chain 2 with N183A
notes: Leucine zipper dimer; D2 entry already carries N183A; copies: 1 + 1
B4: LAG-3 D1-D2-LZ mutant WS451-LZ (E201G) (other)
chain 1: B2 chain 1 with E201G
chain 2: B2 chain 2 with E201G
notes: Leucine zipper dimer; D2 entry already carries E201G; copies: 1 + 1
B5: LAG-3 D1-D2-LZ mutant WS447-LZ (E201D) (other)
chain 1: B2 chain 1 with E201D
chain 2: B2 chain 2 with E201D
notes: Leucine zipper dimer; D2 entry already carries E201D; copies: 1 + 1
B6: LAG-3 D1-D2-LZ mutant WS331-LZ (P195A) (other)
chain 1: B2 chain 1 with P195A
chain 2: B2 chain 2 with P195A
notes: Leucine zipper dimer; D2 entry already carries P195A; copies: 1 + 1

Experiment [1] deals with T1, Y103-4A (LAG3 D1-D2-D3-D4-Fab, anti-PD-L1 Fab) (human).
T1 construct: Dimer of LAG-3-Linker3-VL-CL and LAG-3-Linker3-VH-CH1; the Fab is specific for PD-L1
Nature of the experiment: Biacore SPR, antigen amine-coupled on CM5 chip, 1:1 fit. In general terms: Surface plasmon resonance follows binding to a sensor surface in real time, without labels.

Experiment [2] has as its target T2, Y103-7A (LAG3 D1-D2-Fab, anti-PD-L1 Fab) (human).
T2 construct: Dimer of LAG-3-Linker3-VL-CL and LAG-3-Linker3-VH-CH1; the Fab is specific for PD-L1
Described as above.

Experiment [3] has as its target T3, LAG-3 D1-D2-D3-Fc mutant P207I (UniProt P18627 23-352).
T3 construct: domain: D1-D2-D3; also called LAG-3 D1-D2-D3-Linker-Fc P207I
Nature of the experiment: procedures of Examples 2-4 repeated; method not told here.

The target in experiment [4] is T4, LAG-3 D1-D2-D3-Fc mutant E201D (UniProt P18627 23-352).
T4 construct: domain: D1-D2-D3; also called LAG-3 D1-D2-D3-Linker-Fc E201D
The description is as above.

The target in experiment [5] is T5, LAG-3 D1-D2-D3-Fc mutant M212A (UniProt P18627 23-352).
T5 construct: domain: D1-D2-D3; also called LAG-3 D1-D2-D3-Linker-Fc M212A
The description is as above.

The target in experiment [6] is T6, LAG-3 D1-D2-D3-Fc mutant E201G (UniProt P18627 23-352).
T6 construct: domain: D1-D2-D3; also called LAG-3 D1-D2-D3-Linker-Fc E201G
Described as above.

For experiment [7], the target named is B1. Nature of the experiment: ELISA, same method as in Example 3: construct coated, serially diluted human FGL1 added, OD450. Background: An ELISA detects its analyte on a solid surface through an enzyme-linked reagent.

Regarding B1, the figures for the dissociation constant Kd in experiment [1] and in experiment [2] were 0.929 nM and 2.46 nM, respectively. Besides, the binding result in experiment [3], in experiment [4], in experiment [5] and in experiment [6] was “binds” throughout. For the molecule B2, in experiment [7], the binding result is reported as “binds”. Same read-out and setting: with B3 the entry was “binds”; with B4, “binds”; with B5, “binds”. For the molecule B6, the binding result in experiment [7] is “binds”.
